Measurements as given in PMC3898472, “Molecular Basis for DNA Double-Strand Break Annealing and Primer Extension by an NHEJ DNA Polymerase”.

Molecular target: Mt-PolDom K217A (UniProt P9WNV3 1-300, K217A)
Assay: EMSA
Conditions: protein: recombinant; label: 32P 5'-end label

B1: 1-nt gapped SP1C/T13C/DG-P (dsDNA)
DNA 1: AGAAGTGTATCTAGTACTCACTGTGATC
DNA 2: GATCACAGTGAGTAC
DNA 3: AGATACACTTCT
modifications: 5'-phosphate on DG
- binding result: binds
